In patent US20130053541A1, “METHODS FOR DISCOVERING MOLECULES THAT BIND TO PROTEINS” (LYNNTECH, INC., priority 2011, published 2013):
Where no end group is shown, it is not given here.

T1: native human ESRRG protein (Estrogen-receptor related receptor gamma) (human, UniProt P62508 229-458, limits assumed)
T1 construct: the screened protein is called 'native human ESRRG protein'; also called ESSRG; ERRγ
T1 sequence (looked up): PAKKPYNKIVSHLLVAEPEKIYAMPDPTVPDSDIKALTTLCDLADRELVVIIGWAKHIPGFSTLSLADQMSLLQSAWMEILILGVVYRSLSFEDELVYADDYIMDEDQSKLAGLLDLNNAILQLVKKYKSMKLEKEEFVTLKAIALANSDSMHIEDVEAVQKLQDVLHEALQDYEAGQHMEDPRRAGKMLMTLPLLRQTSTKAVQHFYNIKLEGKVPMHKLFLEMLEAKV


Biological target: T1, native human ESRRG protein …
Experiment: peptide microarray, Iteration 1; bound ESRRG detected with fluorescent anti-ESRRG mAb
Procedure: (§1) Screening was carried out typically by hybridization of the protein (1 μg/mL) against the array for 1 h at 4° C.; detection of bound protein was carried out using a fluorescently labeled anti-ESRRG mAb. (Direct labeling of ESRRG and alternative detection strategies are equally valid).
Daughter candidate ligands and their new Tier 3 and/or Tier 1 based combinations were synthesized in situ on an addressable peptide microarray and screened against native human ESRRG protein in order to determine sequences that bind to this protein. Bound protein was detected by a fluorescently labeled anti-ESRRG mAb. […] Excess (100×) competing biological matrices (human serum, HSA/BSA or bacterial protein extract) were used as backgrounds to select for specific ligands to the protein. Other competing proteins can be added to background for specificity selection and directed evolution of ligands.

| Binder | Sample B (Probe) Signal | log2 (Sample B/Sample A) |
| --- | --- | --- |
| Ac-LHLRYSQT | 961 fluorescence intensity units | 4.86 |
| Ac-ANNSLLLH | 1320 fluorescence intensity units | 6.51 |
| Ac-ANNLSLLH | 1220 fluorescence intensity units | 5.82 |
| Ac-ANNLQLLH | 1540 fluorescence intensity units | 5.03 |
| Ac-ANNILLLH | 1090 fluorescence intensity units | 6.34 |
| Ac-ANNLWLLH | 1610 fluorescence intensity units | 5.26 |
| Ac-ANNSQLLH | 955 fluorescence intensity units | 9.9 |
| Ac-ANNSSLLH | 1150 fluorescence intensity units | 7.29 |
| Ac-ANNIWLLH | 1010 fluorescence intensity units | 5.05 |
| Ac-ANNFLLLH | 1620 fluorescence intensity units | 5.13 |
| Ac-ANNIQLLH | 806 fluorescence intensity units | 8.57 |
| Ac-ANNLKLLH | 1670 fluorescence intensity units | 4.88 |
| Ac-ANNSKLLH | 1010 fluorescence intensity units | 5.42 |
| Ac-IKQNYNNS | 740 fluorescence intensity units | 4.97 |
| Ac-NSLLQHLL | 9740 fluorescence intensity units | 12 |
| Ac-NSLRQHLL | 3240 fluorescence intensity units | 6.08 |
| Ac-NSLRSHLL | 1670 fluorescence intensity units | 6.34 |

Biological target: T1, native human ESRRG protein …
Experiment: peptide microarray, Iteration 2; bound ESRRG detected with fluorescent anti-ESRRG mAb
Procedure: as §1
Iterative sequence expansion and arraying of 10 highest binding ligands to ESRRG from Iteration 1 was carried out and the new peptide sequences were synthesized on an array and screened against the protein, as described above. In this step, the central 2 amino acids (core) in peptide sequences were maintained unchanged while outlying amino acids (2, 3, 6, and 7) were permuted (using Tier 1 and Tier 3 substitutions) in a ‘cipher’ or ‘combination’ lock approach.

| Binder | Sample B (Probe) Signal | log2 (Sample B/Sample A) |
| --- | --- | --- |
| Ac-WLLLKHGL | 895 fluorescence intensity units | 2.01 |
| Ac-HFKLKQGG | 3110 fluorescence intensity units | 2.28 |
| Ac-AFNMYLDE | 440 fluorescence intensity units | 1.93 |
| Ac-YFLLQQGP | 794 fluorescence intensity units | 1.97 |
| Ac-EESYPRDK | 554 fluorescence intensity units | 2.19 |
| Ac-HNNYLLNN | 964 fluorescence intensity units | 2.34 |
| Ac-HNSYPRNE | 802 fluorescence intensity units | 2.48 |
| Ac-MYKLKQDN | 746 fluorescence intensity units | 2.02 |
| Ac-YHNYLLHP | 1310 fluorescence intensity units | 2.45 |
| Ac-HNNFSLEP | 441 fluorescence intensity units | 2.03 |
| Ac-FVNFSLGI | 900 fluorescence intensity units | 1.92 |
| Ac-IFLLQQDN | 1010 fluorescence intensity units | 2.08 |
| Ac-PFKLKQGN | 6980 fluorescence intensity units | 2.2 |
| Ac-WGKLKQGE | 1230 fluorescence intensity units | 2.56 |
| Ac-GKSYPRHR | 3050 fluorescence intensity units | 2.46 |
| Ac-RLLHYGSY | 1200 fluorescence intensity units | 2.05 |
| Ac-HRSYPRVY | 2450 fluorescence intensity units | 2.31 |
| Ac-PGKGHFPI | 998 fluorescence intensity units | 1.94 |
| Ac-WRSYPRRA | 2610 fluorescence intensity units | 2.07 |
| Ac-RRSYPRGR | 1660 fluorescence intensity units | 1.9 |
| Ac-ALNFSLNW | 662 fluorescence intensity units | 2.12 |
| Ac-LFKLKQND | 1860 fluorescence intensity units | 2.34 |
| Ac-AHNYLLEH | 619 fluorescence intensity units | 2.42 |
| Ac-FWNMYLNP | 775 fluorescence intensity units | 2.29 |
| Ac-NNSYPRHR | 3420 fluorescence intensity units | 2.23 |
| Ac-DRSYPRHT | 271 fluorescence intensity units | 1.98 |
| Ac-FFNFSLPA | 1040 fluorescence intensity units | 2.66 |
